# Laboratory results: patent US20170015738A1
# Where “and” joins values, the source holds several entries; their conditions need not be identical. Equal entries are not always repeated.
# Key:
# [1] = biological target: pathological hyperphosphorylated tau from human Alzheimer's disease brain, sarkosyl-insoluble P3 fraction (human) (UniProt P10636); test: fluid phase MSD ELISA: inhibition of AD-P3 tau antigen capture
# [2] = biological target: pathological hyperphosphorylated tau from human Alzheimer's disease brain, sarkosyl-insoluble P3 fraction (human) (UniProt P10636); test: MSD, AD-P3 coated plate (FIG. 34); C10-2 100 ng/ml + PBS/0.1% BSA (no competitor)
# [3] = biological target: pathological hyperphosphorylated tau from human Alzheimer's disease brain, sarkosyl-insoluble P3 fraction (human) (UniProt P10636); test: MSD, AD-P3 coated plate (FIG. 34); C10-2 10000 ng/ml + 10 µM tau peptide as competitor
# [4] = biological target: pathological hyperphosphorylated tau from human Alzheimer's disease brain, sarkosyl-insoluble P3 fraction (human) (UniProt P10636); test: fluid phase MSD ELISA: inhibition of tau antigen capture
# [5] = biological target: pathological hyperphosphorylated tau from human Alzheimer's disease brain, sarkosyl-insoluble P3 fraction (human) (UniProt P10636); test: MSD, AD-P3 coated plate (FIG. 34); C10-2 30 ng/ml + 10 µM tau peptide as competitor
# [6] = biological target: pathological hyperphosphorylated tau from human Alzheimer's disease brain, sarkosyl-insoluble P3 fraction (human) (UniProt P10636); test: MSD, AD-P3 coated plate (FIG. 34); C10-2 3 ng/ml + PBS/0.1% BSA (no competitor)
# [7] = biological target: hyperphosphorylated tau phosphorylated at serine 396 in human Alzheimer brain (extracts and sections) (human) (UniProt P10636); test: immunodepletion of Alzheimer brain extract with antibody on Protein G Dynabeads; western blot
# Sequence of hyperphosphorylated tau phosphorylated at serine 396 in human Alzheimer brain (extracts and sections) (human) (P10636 other isoform, or with tags, fused parts or gaps limits assumed): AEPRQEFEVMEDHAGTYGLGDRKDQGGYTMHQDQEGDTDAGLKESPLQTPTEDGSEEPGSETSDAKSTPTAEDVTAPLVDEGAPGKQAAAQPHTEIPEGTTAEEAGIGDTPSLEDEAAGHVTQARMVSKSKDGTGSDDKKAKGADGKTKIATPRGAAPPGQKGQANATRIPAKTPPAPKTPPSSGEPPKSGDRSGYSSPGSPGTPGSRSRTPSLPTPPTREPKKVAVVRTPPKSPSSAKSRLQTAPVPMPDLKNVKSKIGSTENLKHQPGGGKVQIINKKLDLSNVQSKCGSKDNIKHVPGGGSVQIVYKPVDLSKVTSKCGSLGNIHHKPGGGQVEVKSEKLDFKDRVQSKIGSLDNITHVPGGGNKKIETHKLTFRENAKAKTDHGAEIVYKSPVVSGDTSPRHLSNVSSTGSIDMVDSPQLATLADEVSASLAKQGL
# [8] = biological target: pathological hyperphosphorylated tau from human Alzheimer's disease brain, sarkosyl-insoluble P3 fraction (human) (UniProt P10636); test: MSD, AD-P3 coated plate (FIG. 34); C10-2 1000 ng/ml + 10 µM tau peptide as competitor
# [9] = biological target: pathological hyperphosphorylated tau from human Alzheimer's disease brain, sarkosyl-insoluble P3 fraction (human) (UniProt P10636); test: MSD, AD-P3 coated plate (FIG. 34); C10-2 1000 ng/ml + PBS/0.1% BSA (no competitor)
# [10] = biological target: pathological hyperphosphorylated tau from human Alzheimer's disease brain, sarkosyl-insoluble P3 fraction (human) (UniProt P10636); test: MSD, AD-P3 coated plate (FIG. 34); C10-2 10 ng/ml + PBS/0.1% BSA (no competitor)
# [11] = biological target: pathological hyperphosphorylated tau from human Alzheimer's disease brain, sarkosyl-insoluble P3 fraction (human) (UniProt P10636); test: MSD, AD-P3 coated plate (FIG. 34); C10-2 300 ng/ml + 10 µM tau peptide as competitor
# [12] = biological target: pathological hyperphosphorylated tau from human Alzheimer's disease brain, sarkosyl-insoluble P3 fraction (human) (UniProt P10636); test: MSD, AD-P3 coated plate (FIG. 34); C10-2 3 ng/ml + 10 µM tau peptide as competitor
# [13] = biological target: hyperphosphorylated tau phosphorylated at serine 396 in human Alzheimer brain (extracts and sections) (human) (UniProt P10636); test: immunodepletion of Alzheimer brain extract; western blot; compared to hHel control antibody
# [14] = biological target: pathological hyperphosphorylated tau from human Alzheimer's disease brain, sarkosyl-insoluble P3 fraction (human) (UniProt P10636); test: MSD, AD-P3 coated plate (FIG. 34); C10-2 30 ng/ml + PBS/0.1% BSA (no competitor)
# [15] = biological target: pathological hyperphosphorylated tau from human Alzheimer's disease brain, sarkosyl-insoluble P3 fraction (human) (UniProt P10636); test: fluid phase inhibition of Ptau antigen capture in C10-2 coated plate (comparison with mD1.2)
# [16] = biological target: pathological hyperphosphorylated tau from human Alzheimer's disease brain, sarkosyl-insoluble P3 fraction (human) (UniProt P10636); test: fluid phase inhibition of p-tau antigen capture in mC10-2 coated plate (comparison with PHF-13)
# [17] = biological target: pathological hyperphosphorylated tau from human Alzheimer's disease brain, sarkosyl-insoluble P3 fraction (human) (UniProt P10636); test: MSD, AD-P3 coated plate (FIG. 34); C10-2 10000 ng/ml + PBS/0.1% BSA (no competitor)
# [18] = biological target: pathological hyperphosphorylated tau from human Alzheimer's disease brain, sarkosyl-insoluble P3 fraction (human) (UniProt P10636); test: MSD ELISA on immobilised P3 tau; ratio of binding to AD over healthy control at saturation
# [19] = biological target: pathological hyperphosphorylated tau from human Alzheimer's disease brain, sarkosyl-insoluble P3 fraction (human) (UniProt P10636); test: MSD, AD-P3 coated plate (FIG. 34); C10-2 100 ng/ml + 10 µM tau peptide as competitor
# [20] = biological target: pathological hyperphosphorylated tau from human Alzheimer's disease brain, sarkosyl-insoluble P3 fraction (human) (UniProt P10636); test: MSD, AD-P3 coated plate (FIG. 34); C10-2 300 ng/ml + PBS/0.1% BSA (no competitor)
# [21] = biological target: pathological hyperphosphorylated tau from human Alzheimer's disease brain, sarkosyl-insoluble P3 fraction (human) (UniProt P10636); test: fluid phase MSD ELISA: antibody mixed with AD P3 in solution, capture on C10-2 coated plates
# [22] = biological target: pathological hyperphosphorylated tau from human Alzheimer's disease brain, sarkosyl-insoluble P3 fraction (human) (UniProt P10636); test: MSD, AD-P3 coated plate (FIG. 34); C10-2 10 ng/ml + 10 µM tau peptide as competitor
# [23] = biological target: pathological hyperphosphorylated tau from human Alzheimer's disease brain, sarkosyl-insoluble P3 fraction (human) (UniProt P10636); test: MSD, AD-P3 coated plate (FIG. 34); PHF 13 at '1000' (unit inferred) + PBS/0.1% BSA (no competitor)
# [24] = biological target: pathological hyperphosphorylated tau from human Alzheimer's disease brain, sarkosyl-insoluble P3 fraction (human) (UniProt P10636); test: MSD, AD-P3 coated plate (FIG. 34); PHF 13 at '3000' (unit inferred) + PBS/0.1% BSA (no competitor)
# [25] = biological target: pathological hyperphosphorylated tau from human Alzheimer's disease brain, sarkosyl-insoluble P3 fraction (human) (UniProt P10636); test: MSD, AD-P3 coated plate (FIG. 34); PHF 13 at '1000000' (unit inferred) + PBS/0.1% BSA (no competitor)
# [26] = biological target: pathological hyperphosphorylated tau from human Alzheimer's disease brain, sarkosyl-insoluble P3 fraction (human) (UniProt P10636); test: MSD, AD-P3 coated plate (FIG. 34); PHF 13 at '30000' (unit inferred) + 10 µM tau peptide as competitor
# [27] = biological target: pathological hyperphosphorylated tau from human Alzheimer's disease brain, sarkosyl-insoluble P3 fraction (human) (UniProt P10636); test: MSD, AD-P3 coated plate (FIG. 34); PHF 13 at '100000' (unit inferred) + 10 µM tau peptide as competitor
# [28] = biological target: pathological hyperphosphorylated tau from human Alzheimer's disease brain, sarkosyl-insoluble P3 fraction (human) (UniProt P10636); test: MSD, AD-P3 coated plate (FIG. 34); PHF 13 at '300000' (unit inferred) + 10 µM tau peptide as competitor
# [29] = biological target: pathological hyperphosphorylated tau from human Alzheimer's disease brain, sarkosyl-insoluble P3 fraction (human) (UniProt P10636); test: MSD, AD-P3 coated plate (FIG. 34); PHF 13 at '300000' (unit inferred) + PBS/0.1% BSA (no competitor)
# [30] = biological target: pathological hyperphosphorylated tau from human Alzheimer's disease brain, sarkosyl-insoluble P3 fraction (human) (UniProt P10636); test: MSD, AD-P3 coated plate (FIG. 34); PHF 13 at '30000' (unit inferred) + PBS/0.1% BSA (no competitor)
# [31] = biological target: pathological hyperphosphorylated tau from human Alzheimer's disease brain, sarkosyl-insoluble P3 fraction (human) (UniProt P10636); test: MSD, AD-P3 coated plate (FIG. 34); PHF 13 at '3000' (unit inferred) + 10 µM tau peptide as competitor
# [32] = biological target: pathological hyperphosphorylated tau from human Alzheimer's disease brain, sarkosyl-insoluble P3 fraction (human) (UniProt P10636); test: MSD, AD-P3 coated plate (FIG. 34); PHF 13 at '10000M' (unit not explained) + 10 µM tau peptide as competitor
# [33] = biological target: pathological hyperphosphorylated tau from human Alzheimer's disease brain, sarkosyl-insoluble P3 fraction (human) (UniProt P10636); test: MSD, AD-P3 coated plate (FIG. 34); PHF 13 at '100000' (unit inferred) + PBS/0.1% BSA (no competitor)
# [34] = biological target: pathological hyperphosphorylated tau from human Alzheimer's disease brain, sarkosyl-insoluble P3 fraction (human) (UniProt P10636); test: MSD, AD-P3 coated plate (FIG. 34); PHF 13 at '1000' (unit inferred) + 10 µM tau peptide as competitor
# [35] = biological target: pathological hyperphosphorylated tau from human Alzheimer's disease brain, sarkosyl-insoluble P3 fraction (human) (UniProt P10636); test: MSD, AD-P3 coated plate (FIG. 34); PHF 13 at '1000000' (unit inferred) + 10 µM tau peptide as competitor
# [36] = biological target: pathological hyperphosphorylated tau from human Alzheimer's disease brain, sarkosyl-insoluble P3 fraction (human) (UniProt P10636); test: MSD, AD-P3 coated plate (FIG. 34); PHF 13 at '10000' (unit inferred) + PBS/0.1% BSA (no competitor)
# [37] = biological target: pathological hyperphosphorylated tau from human Alzheimer's disease brain, sarkosyl-insoluble P3 fraction (human) (UniProt P10636); test: fluid phase inhibition of p-tau antigen capture in mC10-2 coated plate
# [38] = biological target: hyper-phosphorylated P301L mutant human 4R0N tau from rTg4510 mouse brain (64 and 70 kDa species; P3 / brain extract) (human) (UniProt P10636); test: MSD ELISA on immobilised P3; ratio of binding to Tg4510 over wt mouse material
# Sequence of hyper-phosphorylated P301L mutant human 4R0N tau from rTg4510 mouse brain (64 and 70 kDa species; P3 / brain extract) (human) (P10636 other isoform, or with tags, fused parts or gaps P301L P301L): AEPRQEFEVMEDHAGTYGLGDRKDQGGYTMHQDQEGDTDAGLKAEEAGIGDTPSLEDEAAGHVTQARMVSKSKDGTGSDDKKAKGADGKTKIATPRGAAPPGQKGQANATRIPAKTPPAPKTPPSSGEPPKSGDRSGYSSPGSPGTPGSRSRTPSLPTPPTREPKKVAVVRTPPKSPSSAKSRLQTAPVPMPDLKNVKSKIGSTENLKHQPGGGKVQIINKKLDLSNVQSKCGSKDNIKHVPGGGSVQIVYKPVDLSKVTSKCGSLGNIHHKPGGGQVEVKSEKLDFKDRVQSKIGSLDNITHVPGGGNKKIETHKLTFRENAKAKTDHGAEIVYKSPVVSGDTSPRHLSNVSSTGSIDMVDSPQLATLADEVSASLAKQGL
# [39] = biological target: total tau in Alzheimer brain extract (human) (UniProt P10636); test: immunodepletion of Alzheimer brain extract; western blot
# Sequence of total tau in Alzheimer brain extract (human) (P10636 other isoform, or with tags, fused parts or gaps limits assumed): as the sequence (P10636 other isoform, or with tags, fused parts or gaps limits assumed) above
# [40] = biological target: hyperphosphorylated tau phosphorylated at serine 396 in human Alzheimer brain (extracts and sections) (human) (UniProt P10636); test: as above
# [41] = biological target: aggregated Tau in Alzheimer brain extract (Cisbio assay) (human) (UniProt P10636); test: immunodepletion of AD extract; Cisbio tau aggregation assay; in comparison to hHel antibody
# Sequence of aggregated Tau in Alzheimer brain extract (Cisbio assay) (human) (P10636 other isoform, or with tags, fused parts or gaps limits assumed): as above
# [42] = biological target: normal P301L mutant human 4R0N tau from rTg4510 mouse brain (55 kDa band) (human) (UniProt P10636); test: immunodepletion of rTg4510 brain extracts; western blot quantification (FIG. 14)
# Sequence of normal P301L mutant human 4R0N tau from rTg4510 mouse brain (55 kDa band) (human) (P10636 other isoform, or with tags, fused parts or gaps P301L P301L): as the sequence (P10636 other isoform, or with tags, fused parts or gaps P301L P301L) above
# Sequence of pathological hyperphosphorylated tau from human Alzheimer's disease brain, sarkosyl-insoluble P3 fraction (human) (P10636 other isoform, or with tags, fused parts or gaps limits assumed): as the sequence (P10636 other isoform, or with tags, fused parts or gaps limits assumed) above
# Sequence of HJ8.5 (antibody) (VH): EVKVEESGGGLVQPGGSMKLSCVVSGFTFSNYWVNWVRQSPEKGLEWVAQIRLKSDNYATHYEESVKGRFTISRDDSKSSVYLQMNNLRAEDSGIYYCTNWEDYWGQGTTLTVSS
# Sequence of HJ8.5 (antibody) (VL): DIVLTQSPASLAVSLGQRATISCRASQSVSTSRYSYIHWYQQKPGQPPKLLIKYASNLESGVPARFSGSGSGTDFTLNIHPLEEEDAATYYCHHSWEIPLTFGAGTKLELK
substance,measurement,setting,value
Antibody C10-2 (murine),IC50,[1],3 nM
same,mean Signal,[2],21800 signal
same,signal,[2],21900 signal and 21700 signal
same,mean Signal,[3],870 signal
same,signal,[3],920 signal and 820 signal
same,IC50,[4],320 nM
same,mean Signal,[5],345 signal
same,signal,[5],384 signal and 306 signal
same,mean Signal,[6],1880 signal
same,signal,[6],1890 signal and 1870 signal
same,percent removed by immunodepletion,[7],90%
same,mean Signal,[8],451 signal
same,signal,[8],462 signal and 439 signal
same,mean Signal,[9],38500 signal
same,signal,[9],38200 signal and 38800 signal
same,mean Signal,[10],5720 signal
same,signal,[10],5860 signal and 5580 signal
same,mean Signal,[11],407 signal
same,signal,[11],434 signal and 379 signal
same,mean Signal,[12],366 signal
same,signal,[12],384 signal and 348 signal
same,percent removed by immunodepletion,[13],93%
same,mean Signal,[14],11900 signal
same,signal,[14],12000 signal and 11800 signal
same,IC50,[15],10 to 20 nM
same,IC50,[16],10 to 20 nM
same,mean Signal,[17],51200 signal
same,signal,[17],51300 signal and 51100 signal
same,AD/ctrl,[18],> 100 fold
same,mean Signal,[19],357 signal
same,signal,[19],401 signal and 313 signal
same,mean Signal,[20],30400 signal
same,signal,[20],30300 signal and 30500 signal
same,IC50,[21],3 nM
same,mean Signal,[22],383 signal
same,signal,[22],398 signal and 367 signal
PHF13 (commercially available antibody for Tau phosphorylated at Ser 396),mean Signal,[23],12600 signal
same,signal,[23],13700 signal and 11600 signal
same,mean Signal,[24],5790 signal
same,signal,[24],6130 signal and 5460 signal
same,mean Signal,[25],335 signal
same,signal,[25],358 signal and 312 signal
same,mean Signal,[26],481 signal
same,signal,[26],472 signal and 490 signal
same,mean Signal,[27],355 signal
same,signal,[27],370 signal and 340 signal
same,mean Signal,[28],299 signal
same,signal,[28],305 signal and 292 signal
same,mean Signal,[29],560 signal
same,signal,[29],568 signal and 551 signal
same,mean Signal,[30],1580 signal
same,signal,[30],1660 signal and 1500 signal
same,mean Signal,[31],2180 signal
same,signal,[31],2280 signal and 2080 signal
same,mean Signal,[32],953 signal
same,signal,[32],1020 signal and 886 signal
same,mean Signal,[33],852 signal
same,signal,[33],856 signal and 847 signal
same,mean Signal,[34],6900 signal
same,signal,[34],7540 signal and 6250 signal
same,mean Signal,[35],280 signal
same,signal,[35],284 signal and 276 signal
same,mean Signal,[36],2880 signal
same,signal,[36],2900 signal and 2860 signal
same,IC50,[37],500 to 1000 nM
HJ8.5 (antibody),TG/wt,[38],51 fold
same,percent removed by immunodepletion,[39],89%
same,percent removed by immunodepletion,[40],88%
same,percent of aggregated Tau removed,[41],99%
same,AD/ctrl,[18],3 fold
"Tau5 (commercial total Tau antibody, Invitrogen)",percent reduction of the 55 kDa band,[42],74%
